This note sets out measurements from patent publication US20250122301A1 (IBIO, published 2025).

Assay [1] addresses T1, CD25 on CD25+ cells (SUDHL-1, HEK IL-2 reporter cells, primary human regulatory T cells) (human, UniProt P01589 22-272).
T1 sequence (looked up): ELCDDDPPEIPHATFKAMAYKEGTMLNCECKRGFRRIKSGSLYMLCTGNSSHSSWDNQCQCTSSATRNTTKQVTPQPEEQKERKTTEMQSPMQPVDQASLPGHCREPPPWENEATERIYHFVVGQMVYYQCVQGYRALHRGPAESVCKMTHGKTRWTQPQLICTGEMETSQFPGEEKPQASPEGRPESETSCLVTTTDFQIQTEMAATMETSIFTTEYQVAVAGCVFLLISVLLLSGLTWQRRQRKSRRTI
The assay is described as follows: cell-based or functional assay.

For assay [2], the target named is T2, full-length CD25 (human CD25, recombinant protein used on biosensors) (human, UniProt P01589 22-213, limits assumed).
T2 construct: Printed only as Human CD25 / full-length CD25; also called CD25 antigen; alpha chain of the IL-2 receptor
T2 sequence (looked up): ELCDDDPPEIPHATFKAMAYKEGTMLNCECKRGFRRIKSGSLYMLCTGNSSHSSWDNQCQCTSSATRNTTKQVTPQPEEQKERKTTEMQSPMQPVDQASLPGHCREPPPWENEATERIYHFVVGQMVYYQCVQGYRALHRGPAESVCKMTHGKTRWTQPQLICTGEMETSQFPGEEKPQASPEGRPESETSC
Description: Octet BLI, human CD25 on AR2G tip, Fab, pH 6.5. For orientation: In BLI a coated tip is dipped into the sample, and binding shifts an interference pattern.

The target in assay [3] is T2, full-length CD25 (human CD25, …). The assay is described as follows: Octet BLI, human CD25 on AR2G tip, Fab, pH 7.4.
The target in assay [4] is T1, CD25 on CD25+ cells (SUDHL-1, HEK IL-2 …). Description: flow cytometry, dose response on CD25+ SUDHL-1 cells. (In flow cytometry, cells or beads pass a laser one at a time.)
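For EC50 in this document: antibody binding to cells read as median fluorescence intensity of an AF647 anti-human Fc secondary, DAPI+ dead cells excluded, 20 min on ice, 5-fold dilutions from 10 ug/mL.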

B1: D5 Fab (Fab, V domains shown)
VH: HVQLQQSGAELVRPGTSVKISCKASGYTFTNYWLGWVKQRPGHGLEWIGDIYPGGGYTNYNEKFKGKATLTADTSSSTAYMQLSSLTSEDSAVYFCARVTPASWGQGTSLTVSS
VL: DIVMTQSQKFMSTSVGDRVSVTCKASQNVGTNVAWYQQKPGQSPKALIYSASYRYSGVPDRFTGSGSGTDFTLTISNVQSEDLAEYFCQQYNSYPYTFGGGTKLEMK
notes: Fab from mouse immune phage library, expressed in E. coli; also called Fab clone D5
As a reminder, the koff is the rate constant with which the complex falls apart. With B1, in assay [1], the “pSTAT5 IC50 (1 ug/mL) [ng/ml]” value amounted to 0.303 ng/ml, the “pSTAT5 IC50 (2 ug/mL) [ng/ml]” value was found to be 0.488 ng/ml and the “pSTAT5 IC50 (5 ug/mL) [ng/ml]” value came to 1.65 ng/ml. The koff in assay [2] came to 0.00412 s⁻¹. Moreover, in assay [3], the koff amounted to 0.00345 s⁻¹.

B2: D17 Fab (Fab, V domains shown)
VH: QIQLQQSGAELVRPGTSVKISCKASGYTFTNYWLGWVKQRPGHGLEWIGDIYPGGGYTNYNEKFKGKATLTADTSSSTAYMQLSSLTSEDSAVYFCARVTPASWGQGTTLTVSA
VL: DILLTQSQKFMSTSVGDRVSVTCKASQNVGTNVAWYQQKPGQSPKALIYSASYRYSGVPDRFTGSGSGTDFTLTISNVQSEDLAEYFCQQYNSYPLTFGGGTKLEIK
notes: Fab; also called Fab clone D17
Regarding B2, in assay [1], the “pSTAT5 IC50 (1 ug/mL) [ng/ml]” value was 0.251 ng/ml, the “pSTAT5 IC50 (2 ug/mL) [ng/ml]” value was determined as 0.217 ng/ml and the “pSTAT5 IC50 (5 ug/mL) [ng/ml]” value was 0.283 ng/ml. For the same molecule, the koff in assay [2] amounted to 0.00536 s⁻¹. Further, the koff in assay [3] stood at 0.00337 s⁻¹.

B3: D16 Fab (Fab, V domains shown)
VH: QVQMQQSGAELVRPGTSVKISCKASGYTFTNYWLGWVKQRPGHGLEWIGDIYPGGGYTNYNEKFKGKATLTADTSSSTAYMQLSSLTSEDSAVYFCARVTPASWGQGTTLTVSS
VL: DIQMTQSQKFMSTSVGDRVSVTCKASQNVGTNVAWYQQKPGQSPKALIYSASYRYSGVPDRFTGSGSGTDFTLTISNVQSEDLAEYFCQQYNSYPWTFGGGTKLEIK
notes: Fab; also called Fab clone D16
Consider B3, for which, in assay [1], the “pSTAT5 IC50 (1 ug/mL) [ng/ml]” value came to 0.43 ng/ml, the “pSTAT5 IC50 (2 ug/mL) [ng/ml]” value was determined as 4.77 ng/ml and the “pSTAT5 IC50 (5 ug/mL) [ng/ml]” value turned out to be 40.3 ng/ml. For the same molecule, the koff in assay [2] stood at 0.00591 s⁻¹. Also, the koff in assay [3] is 0.004 s⁻¹.

B4: D34 Fab (Fab, V domains shown)
VH: QVQLQQSGAELVRPGVSVKISCKGSGYTFTDYAMHWVKQSHAKSLEWIGVISTYSGDVSYNQKFKGKATMTVDKSSSTAYMELARLTSEDSAIYYCARGVTFDSWGQGTTVTVSS
VL: DIQMTQSPASLSASVGETVTITCRASENSYSYLEWYQQKQGKSPQLLVYNAKTLAEGVPSRFSGSGSGTQFSLKINSLQPEDFGTYYCQHHYGTPYTFGGGTKLEIK
notes: Fab; also called Fab clone D34
Take B4: in assay [1], the “pSTAT5 IC50 (1 ug/mL) [ng/ml]” value came to 2.56 ng/ml, the “pSTAT5 IC50 (2 ug/mL) [ng/ml]” value stood at 2.35 ng/ml and the “pSTAT5 IC50 (5 ug/mL) [ng/ml]” value amounted to 2.27 ng/ml. In addition, the koff in assay [2] stood at 0.00296 s⁻¹. In addition, the koff in assay [3] worked out at 0.00285 s⁻¹.

B5: D34 (human IgG1 reformatted) (antibody, V domains shown)
VH: QVQLQQSGAELVRPGVSVKISCKGSGYTFTDYAMHWVKQSHAKSLEWIGVISTYSGDVSYNQKFKGKATMTVDKSSSTAYMELARLTSEDSAIYYCARGVTFDSWGQGTTVTVSS
VL: DIQMTQSPASLSASVGETVTITCRASENSYSYLEWYQQKQGKSPQLLVYNAKTLAEGVPSRFSGSGSGTQFSLKINSLQPEDFGTYYCQHHYGTPYTFGGGTKLEIK
In general, EC50 refers to the concentration at which the effect is half-maximal. Low values mean greater potency, high ones weaker potency. In assay [4], B5 showed an EC50 of 1.1 µg/mL.

B6: D11 (human IgG1 reformatted) (antibody, V domains shown)
VH: QIQLQQPGAELVRPGVSLKISCKGSGYTFTDYAMHWVRQSHAKSLEWIGVISTYSGDAIYNQKFKGKATMTVDKSSSTAYLELARLTSDDSAIYYCARGVTFDYWGQGTTVTVSS
VL: DIQMTQTTSSLSASLGDRVTITCRASQDISNYLEWYQQKQGKSPQLLVYNAKTLAEGVPSRFSGSGSGTQFSLKINSLQPEDFGSYYCQHHYDTPYTFGGGTKLEIK
B6 yielded an EC50 in assay [4] of 2.12 µg/mL.

B7: D11 Fab (Fab, V domains shown)
VH: QIQLQQPGAELVRPGVSLKISCKGSGYTFTDYAMHWVRQSHAKSLEWIGVISTYSGDAIYNQKFKGKATMTVDKSSSTAYLELARLTSDDSAIYYCARGVTFDYWGQGTTVTVSS
VL: DIQMTQTTSSLSASLGDRVTITCRASQDISNYLEWYQQKQGKSPQLLVYNAKTLAEGVPSRFSGSGSGTQFSLKINSLQPEDFGSYYCQHHYDTPYTFGGGTKLEIK
notes: Fab; also called Fab clone D11
For B7, in assay [1], the “pSTAT5 IC50 (1 ug/mL) [ng/ml]” value was 0.414 ng/ml, the “pSTAT5 IC50 (2 ug/mL) [ng/ml]” value was found to be 0.303 ng/ml and the “pSTAT5 IC50 (5 ug/mL) [ng/ml]” value was determined as 0.509 ng/ml. Further, the koff in assay [2] is 0.00522 s⁻¹. For the same molecule, the koff in assay [3] is 0.00452 s⁻¹.

B8: D36 Fab (Fab, V domains shown)
VH: QVQLQQPGAELVRPGVSLKISCKGSGYTFTDYAMHWVRQSHAKSLEWIGVISTYSGDALYNQKFKGKATMTVDKSSSTAYLELARLTSEDSAIYYCARGVTFDYWGQGTTLTVSS
VL: DVVMTQSPASLSASVGETVTITCRASENSYSYLEWYQQKQGKSPQLLVYNAKTLAEGVPSRFSGSGSGTQFSLKINSLQPEDFGTYYCQHHYGTPYTFGGGTKLEMK
notes: Fab; also called Fab clone D36
As to B8, in assay [1], the “pSTAT5 IC50 (1 ug/mL) [ng/ml]” value is 2.23 ng/ml, the “pSTAT5 IC50 (2 ug/mL) [ng/ml]” value was determined as 3.45 ng/ml and the “pSTAT5 IC50 (5 ug/mL) [ng/ml]” value came out at 0.378 ng/ml. The koff in assay [2] came out at 0.00172 s⁻¹. In addition, the koff in assay [3] came out at 0.000898 s⁻¹.

B9: 7G7B6 (antibody, V domains shown)
VH: EVQLVESGGDLVQPRGSLKLSCAASGFTFSSYGMSWVRQTPDKRLELVATINGYGDTTYYPDSVKGRFTISRDNAKNTLYLQMSSLKSEDTAMYFCARDRDYGNSYYYALDYWGQGTSVTVSS
VL: QIVLSQSPAILSASPGERVTMTCRASSSVSFMHWLQQKPGSSPKPWIYATSNLASGVSARFSGSGSGTSYSLTITRVEAEDAATYYCQQWSSNPPAFGGGTKLEIK
For B9, in assay [1], the “pSTAT5 IC50 (1 ug/mL) [ng/ml]” value is 0.963 ng/ml, the “pSTAT5 IC50 (2 ug/mL) [ng/ml]” value worked out at 0.906 ng/ml and the “pSTAT5 IC50 (5 ug/mL) [ng/ml]” value amounted to 1.47 ng/ml. In assay [4], this molecule had an EC50 of 0.903 µg/mL.

B10: AH05214 (human IgG1 reformatted) (antibody, V domains shown)
VH: QIQLQQPGAELVKPGASVKLPCKASGYTFTSYWMHWVKQRPGQGLEWIGEINPSNGRTNYNEKFKSKATLTVDKSSSTAYMQLSSLTSEDSAVYYCARQLAAYWGQGTTVTVSS
VL: DILLTQSPALMAASPGEKVTITCSVSSSISSSNLHWYQQKSETSPKPWIYGTSNLASGVPVRFSGSGSGTSYSLTISSMEAEDAATYYCQQWSSYPLTFGGGTKLEIK
Consider B10, for which, in assay [4], the EC50 was approximately 51.1 µg/mL.

B11: AH05286 (human IgG1 reformatted) (antibody, V domains shown)
VH: QVQLKQSGADLMKPGASVKISCKASGYTFSNYWIEWIKQRPGHGLEWIGEILPGSGYTNYNENFKGKATFTADTSSNTTYIQLSSLSSEDSAVYYCARGGTSFVHFDYWGQGTTLTVSS
VL: DIVLTQSPPTLSLSPGERVTLSCKASQDVNTAVAWYQQKPGQAPRLLIYWASTRHTGVPSRFSGSGSGTDFTLTISSLQPEDFATYYCQQHYSSPWTFGGGTKLEIK
The molecule B11 came in with an EC50 in assay [4] of 0.777 µg/mL.

B12: AH05249 (human IgG1 reformatted) (antibody, V domains shown)
VH: QVQLQQSGADLMKPGASVKMSCRASGYTFSNYWIEWIKQRPGHGLEWIGEILPGSGFTNYNENFKGKATFTADTSSNTTYMLLSSLSSEDSAVYYCARGGTSVVHFDSWGQGTTLTVSS
VL: DIVMTQTPKFLLVSAGDRVTITCKASQSVNNDVVWYQQKPGQSPKLLIYYASNRYTGVPDRFTGSGYGTDFTFTISTVQAEDLAVYFCQQDYRSPYTFGGGTKLEIK
The molecule B12 gave an EC50 in assay [4] of 0.897 µg/mL. The EC50 values of the last two molecules are within 1.5-fold of each other.

B13: AH04734 (human IgG1 reformatted) (antibody, V domains shown)
VH: QVQLQQPAAELARPGASVKMSCKASGYTFTTSTMHWVKQRPGQGLEWIGYINPRSGYTEYNQKFKDKTTLTADKSSSTAYMQLSSLTSEDSAVYYCARHYYFDYWGQGTTVTVSS
VL: DIQMTQSTSSLSASLGDRVTISCRASQDIRNYLNWYQQKPDGTVKLLIYYTSRLHSGVPSRFSGSGSGTDYSLTISNLEQEDIATYFCQQGNTLPPTSGGGTKLEIK
For B13, in assay [4], the EC50 was 1.91 µg/mL.
